This note sets out measurements from IntAct's records for PubMed 16407977.

Sequences and labels used below:
B1: Transient receptor potential cation channel subfamily M member 7 (Mus musculus), Q923J1 (parent)
chain: MSQKSWIESTLTKRECVYIIPSSKDPHRCLPGCQICQQLVRCFCGRLVKQHACFTASLAMKYSDVKLGEHFNQAIEEWSVEKHTEQSPTDAYGVINFQGGSHSYRAKYVRLSYDTKPEIILQLLLKEWQMELPKLVISVHGGMQKFELHPRIKQLLGKGLIKAAVTTGAWILTGGVNTGVAKHVGDALKEHASRSSRKICTIGIAPWGVIENRNDLVGRDVVAPYQTLLNPLSKLNVLNNLHSHFILVDDGTVGKYGAEVRLRRELEKTINQQRIHARIGQGVPVVALIFEGGPNVILTVLEYLQESPPVPVVVCEGTGRAADLLAYIHKQTEEGGNLPDAAEPDIISTIKKTFNFGQSEAVHLFQTMMECMKKKELITVFHIGSEDHQDIDVAILTALLKGTNASAFDQLILTLAWDRVDIAKNHVFVYGQQWLVGSLEQAMLDALVMDRVSFVKLLIENGVSMHKFLTIPRLEELYNTKQGPTNPMLFHLIRDVKQGNLPPGYKITLIDIGLVIEYLMGGTYRCTYTRKRFRLIYNSLGGNNRRSGRNTSSSTPQLRKSHETFGNRADKKEKMRHNHFIKTAQPYRPKMDASMEEGKKKRTKDEIVDIDDPETKRFPYPLNELLIWACLMKRQVMARFLWQHGEESMAKALVACKIYRSMAYEAKQSDLVDDTSEELKQYSNDFGQLAVELLEQSFRQDETMAMKLLTYELKNWSNSTCLKLAVSSRLRPFVAHTCTQMLLSDMWMGRLNMRKNSWYKVILSILVPPAILMLEYKTKAEMSHIPQSQDAHQMTMEDSENNFHNITEEIPMEVFKEVKILDSSDGKNEMEIHIKSKKLPITRKFYAFYHAPIVKFWFNTLAYLGFLMLYTFVVLVKMEQLPSVQEWIVIAYIFTYAIEKVREVFMSEAGKISQKIKVWFSDYFNVSDTIAIISFFVGFGLRFGAKWNYINAYDNHVFVAGRLIYCLNIIFWYVRLLDFLAVNQQAGPYVMMIGKMVANMFYIVVIMALVLLSFGVPRKAILYPHEEPSWSLAKDIVFHPYWMIFGEVYAYEIDVCANDSTLPTICGPGTWLTPFLQAVYLFVQYIIMVNLLIAFFNNVYLQVKAISNIVWKYQRYHFIMAYHEKPVLPPPLIILSHIVSLFCCVCKRRKKDKTSDGPKLFLTEEDQKKLHDFEEQCVEMYFDEKDDKFNSGSEERIRVTFERVEQMSIQIKEVGDRVNYIKRSLQSLDSQIGHLQDLSALTVDTLKTLTAQKASEASKVHNEITRELSISKHLAQNLIDDVPVRPLWKKPSAVNTLSSSLPQGDRESNNPFLCNIFMKDEKDPQYNLFGQDLPVIPQRKEFNIPEAGSSCGALFPSAVSPPELRQRRHGVEMLKIFNKNQKLGSSPNSSPHMSSPPTKFSVSTPSQPSCKSHLESTTKDQEPIFYKAAEGDNIEFGAFVGHRDSMDLQRFKETSNKIRELLSNDTPENTLKHVGAAGYSECCKTSTSLHSVQAESCSRRASTEDSPEVDSKAALLPDWLRDRPSNREMPSEGGTLNGLASPFKPVLDTNYYYSAVERNNLMRLSQSIPFVPVPPRGEPVTVYRLEESSPSILNNSMSSWSQLGLCAKIEFLSKEEMGGGLRRAVKVLCTWSEHDILKSGHLYIIKSFLPEVINTWSSIYKEDTVLHLCLREIQQQRAAQKLTFAFNQMKPKSIPYSPRFLEVFLLYCHSAGQWFAVEECMTGEFRKYNNNNGDEIIPTNTLEEIMLAFSHWTYEYTRGELLVLDLQGVGENLTDPSVIKAEEKRSCDMVFGPANLGEDAIKNFRAKHHCNSCCRKLKLPDLKRNDYTPDKIIFPQDESSDLNLQSGNSTKESEATNSVRLML

Variants of B1 are the subject of this experiment. The following applies: with myh9_mouse Myh9, Q8VDD5.
Sequence of myh9_mouse Myh9, Q8VDD5 (Q8VDD5 whole entry): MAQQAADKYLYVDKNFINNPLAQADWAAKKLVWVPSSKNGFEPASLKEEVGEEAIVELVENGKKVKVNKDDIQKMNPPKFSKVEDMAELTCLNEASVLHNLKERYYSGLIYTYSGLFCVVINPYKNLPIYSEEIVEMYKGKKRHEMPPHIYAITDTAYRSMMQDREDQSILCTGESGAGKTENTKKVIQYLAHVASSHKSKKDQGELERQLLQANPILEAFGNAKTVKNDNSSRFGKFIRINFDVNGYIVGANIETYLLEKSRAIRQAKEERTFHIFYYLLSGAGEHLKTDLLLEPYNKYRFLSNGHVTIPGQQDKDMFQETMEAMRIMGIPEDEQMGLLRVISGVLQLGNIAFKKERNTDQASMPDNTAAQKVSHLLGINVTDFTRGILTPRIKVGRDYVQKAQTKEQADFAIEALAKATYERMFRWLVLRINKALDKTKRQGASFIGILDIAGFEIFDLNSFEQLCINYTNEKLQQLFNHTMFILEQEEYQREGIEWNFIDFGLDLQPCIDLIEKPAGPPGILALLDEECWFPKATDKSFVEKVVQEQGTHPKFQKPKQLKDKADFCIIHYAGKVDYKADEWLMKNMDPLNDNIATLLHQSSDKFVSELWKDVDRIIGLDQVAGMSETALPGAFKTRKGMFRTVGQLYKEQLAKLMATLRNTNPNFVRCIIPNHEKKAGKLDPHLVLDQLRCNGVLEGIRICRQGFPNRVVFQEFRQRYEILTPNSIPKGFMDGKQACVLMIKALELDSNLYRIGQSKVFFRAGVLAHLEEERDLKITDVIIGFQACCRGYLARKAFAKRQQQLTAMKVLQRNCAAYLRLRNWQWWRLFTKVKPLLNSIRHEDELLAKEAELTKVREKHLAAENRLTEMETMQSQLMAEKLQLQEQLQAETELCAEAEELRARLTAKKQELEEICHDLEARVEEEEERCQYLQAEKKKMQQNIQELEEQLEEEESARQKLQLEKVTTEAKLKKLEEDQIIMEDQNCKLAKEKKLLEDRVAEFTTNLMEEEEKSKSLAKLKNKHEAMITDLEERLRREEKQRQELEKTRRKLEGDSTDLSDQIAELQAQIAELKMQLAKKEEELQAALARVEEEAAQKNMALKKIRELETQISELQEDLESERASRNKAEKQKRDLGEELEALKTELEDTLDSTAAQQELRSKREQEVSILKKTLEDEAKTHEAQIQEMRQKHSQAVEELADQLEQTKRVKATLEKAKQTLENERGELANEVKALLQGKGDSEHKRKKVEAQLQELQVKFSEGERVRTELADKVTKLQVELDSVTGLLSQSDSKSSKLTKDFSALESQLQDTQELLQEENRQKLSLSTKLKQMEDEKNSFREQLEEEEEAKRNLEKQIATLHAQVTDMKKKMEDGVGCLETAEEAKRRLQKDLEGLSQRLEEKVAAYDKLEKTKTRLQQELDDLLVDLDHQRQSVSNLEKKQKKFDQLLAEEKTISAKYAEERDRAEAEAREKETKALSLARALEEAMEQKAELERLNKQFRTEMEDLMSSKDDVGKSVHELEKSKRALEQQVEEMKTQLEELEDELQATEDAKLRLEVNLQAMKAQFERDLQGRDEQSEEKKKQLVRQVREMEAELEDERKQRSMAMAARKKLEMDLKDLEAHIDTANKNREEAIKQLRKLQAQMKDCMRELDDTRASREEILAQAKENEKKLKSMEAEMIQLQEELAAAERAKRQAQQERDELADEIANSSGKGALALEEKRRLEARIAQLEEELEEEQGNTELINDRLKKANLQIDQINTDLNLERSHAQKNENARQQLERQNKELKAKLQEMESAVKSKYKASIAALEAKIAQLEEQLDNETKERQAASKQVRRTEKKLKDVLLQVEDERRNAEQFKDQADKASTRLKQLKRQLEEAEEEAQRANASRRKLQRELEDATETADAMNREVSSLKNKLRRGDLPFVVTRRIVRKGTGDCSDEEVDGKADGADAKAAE
Consider D1775A, for which the “effect of a mutation on the interaction” value is reported as “decreasing interaction”.
